Values quoted from earlier work, collected in PMC7364852.

Molecular target: Spike RBD (SARS-CoV-2) (UniProt P0DTC2)

Substance: SBP1 (from UniProt Q9BYF1)
- Kd: 47 nM
